Test results published in patent US20130101555A1 (CYTOMX THERAPEUTICS, published 2013).

Molecular target: T1, human Notch1 EGF-like domains 11-13 fused to the Fc domain of human IgG1 (hN111-13-hFc) (human, UniProt P46531 411-526, biotinylated with NHS-PEG-biotin (hN111-13-hFc-biot) or labeled with DyLight-488, depending on the round)
T1 construct: also called hN111-13-hFc-biot; hN111-13-hFc-Dy488; not shown: Fc domain of human IgG1 as encoded by pINFUSE-hIgG1-Fc2 (InvivoGen)
Experiment: bacterial display library screen, magnetic selection and FACS with labeled hN111-13-hFc
Description: Following two rounds of magnetic selection, the remaining rounds of screening were performed on a Becton Dickinson FACSAria flow cytometer. In the first round of FACS, induced cells were incubated with 500 nM hN1₁₁₋₁₃-hFc-biot, 10 μM hIgG in TBS-Ca-B, washed, and incubated with fluorescent secondary label neutravidin-phycoerythrin (NAPE) (Invitrogen) at 10 nM, before sorting by flow cytometry for fluorescently labeled cells. Cells amplified from overnight growth of the first round FACS population were induced and subjected to a second round of sorting with the same labeling conditions as in the first round or, alternatively, using 50 nM hN1₁₁₋₁₃-hFc-biot. A third round of sorting was conducted as in the second round but with 100 nM hN1₁₁₋₁₃-hFc-biot and the addition of 27 nM Ypet-Mona-SH3 in the secondary labeling step. Mona-SH3 binds an epitope on the C-terminus of the display scaffold, independent of the random peptide on the N-terminus. Cells were then sorted based on the ratio of 576 nm fluorescence (i.e. NAPE binding) to 530 nm fluorescence (i.e. Ypet-Mona binding) in order to normalize for differences in scaffold display level on individual cells.
Alternatively, third round sorting was conducted by incubating induced cells with 10 nM or alternatively, 50 nM unbiotinylated hN1₁₁₋₁₃-hFc in TBS-Ca-B before washing, labeling with fluorescent secondary 20 μg/ml anti-hIgG-DyLight-488, and sorting based on 530 nm fluorescence. Third round sorting was also conducted using either 50 nM or 250 nM hN1₁₁₋₁₃-hFc that had been fluorescently labeled with DyLight-488 (Thermo Pierce) (hN1₁₁₋₁₃-hFc-Dy488), and 10 μM hIgG, with no secondary labeling.

T1 sequence (P46531 411-526 limits assumed): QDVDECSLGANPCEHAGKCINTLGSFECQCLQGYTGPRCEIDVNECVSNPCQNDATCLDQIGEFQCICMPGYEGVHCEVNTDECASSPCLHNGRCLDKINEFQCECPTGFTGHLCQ

| binding result | Binder |
| --- | --- |
| binds | NLDFYLNHLYNTLAG [PHB3476] |
| binds | YLLRLPSLEELWGPS [PHB3488] |
| binds | CYPSISWLFADAPRN [PHB3485] |
| binds | PYTFVEQVEYWLHAT [PHB3327] |
| binds | FLNDIHRFLHWTDLM [PHB3325] |
| binds | TDNALFLETVQHYLY [PHB3482] |
| binds | SAKHLHPGRLPPMTK [PHB3341] |
| binds | FCYIAAFSAMQRQSC [PHB3334] |
| binds | IYPLDALLRHLNSLC [PHB3349] |
| binds | PNCIESFLSSIHDSL [PHB3480] |
| binds | TVLVIPDLHYLYVDR [PHB3337] |
| binds | DFINSMRSHLQSSDQ [PHB3478] |
| binds | ELTQLLNALVDVRNC [PHB3486] |
| binds | FPLNTFDLVHELLSR [PHB3324] |
| binds | LLSSFVETMSSILTC [PHB3487] |
| binds | FINNVETALDTIYNL [PHB3340] |
| binds | CFPTVVWRELYNLYG [PHB3352] |
| binds | ATMYAYLERLEAILS [PHB3343] |
| binds | ACVIHFLDRISNILE [PHB3333] |
| binds | EPKCSFCSPLIVPSP [PHB3479] |
| binds | ATCYIINHWVERYII [PHB3489] |
| binds | PLYLPEIGWMFGLPT [PHB3336] |

Molecular target: T1, human Notch1 EGF-like domains 11-13 …
Experiment: flow cytometry of induced E. coli clones, 100 nM hN111-13-hFc-biot then 10 nM SAPE, normalized to scaffold display level
Description: Individual clones were tested by flow cytometry for hN1₁₁₋₁₃-hFc binding by labeling induced cells in TBS-Ca-B with (A.) 50 nM hN1₁₁₋₁₃-hFc-biot or (B.) 100 nM […] hN1₁₁₋₁₃-hFc-biot, followed by 10 nM Streptavidin-R-phycoerythrin (SAPE). Cells were separately labeled with 27 nM Ypet-Mona to measure peptide display level. The display scaffold alone (ecpX3) was used as a negative control.

| binding result | Binder |
| --- | --- |
| binds | RVTCDDYYYGFGCNKFGRPA (also called Jagged1-derived peptide; fragment of JAG1) [peptide derived from Jagged1 displayed by clone Jag-ecpX3] |
